Results published in US7070972 (US Dept. of Health and Human Services, dated 2006).

T1: common γ chain of the IL-2 receptor, wild type (UniProt P31785 23-369, limits assumed)
T1 construct: whole, on cells; Tested in cell lysates; also called wild type γc
T1 sequence (looked up): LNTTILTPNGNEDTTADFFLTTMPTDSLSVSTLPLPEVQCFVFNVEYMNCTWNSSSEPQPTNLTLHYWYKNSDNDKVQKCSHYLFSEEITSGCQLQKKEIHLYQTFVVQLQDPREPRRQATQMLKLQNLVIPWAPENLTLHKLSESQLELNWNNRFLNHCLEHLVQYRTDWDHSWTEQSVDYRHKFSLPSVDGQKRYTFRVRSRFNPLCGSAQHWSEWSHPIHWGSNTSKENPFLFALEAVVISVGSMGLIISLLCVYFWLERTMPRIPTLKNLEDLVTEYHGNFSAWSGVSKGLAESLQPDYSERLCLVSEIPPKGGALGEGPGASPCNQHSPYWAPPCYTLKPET


Tests used:
JAK-1 = target: T2, JAK-1 (UniProt P23458 1-1154, limits assumed); assay: anti-Tac immunoprecipitation, JAK-1 Western blot, COS-7 cotransfectants
T2 construct: whole, on cells; Tested in cell lysates

[1] = target: T1, common γ chain of the IL-2 receptor, …; assay: co-immunoprecipitation from YT cell lysates with R878, JAK-3 Western blot

T2 sequence (P23458 whole entry): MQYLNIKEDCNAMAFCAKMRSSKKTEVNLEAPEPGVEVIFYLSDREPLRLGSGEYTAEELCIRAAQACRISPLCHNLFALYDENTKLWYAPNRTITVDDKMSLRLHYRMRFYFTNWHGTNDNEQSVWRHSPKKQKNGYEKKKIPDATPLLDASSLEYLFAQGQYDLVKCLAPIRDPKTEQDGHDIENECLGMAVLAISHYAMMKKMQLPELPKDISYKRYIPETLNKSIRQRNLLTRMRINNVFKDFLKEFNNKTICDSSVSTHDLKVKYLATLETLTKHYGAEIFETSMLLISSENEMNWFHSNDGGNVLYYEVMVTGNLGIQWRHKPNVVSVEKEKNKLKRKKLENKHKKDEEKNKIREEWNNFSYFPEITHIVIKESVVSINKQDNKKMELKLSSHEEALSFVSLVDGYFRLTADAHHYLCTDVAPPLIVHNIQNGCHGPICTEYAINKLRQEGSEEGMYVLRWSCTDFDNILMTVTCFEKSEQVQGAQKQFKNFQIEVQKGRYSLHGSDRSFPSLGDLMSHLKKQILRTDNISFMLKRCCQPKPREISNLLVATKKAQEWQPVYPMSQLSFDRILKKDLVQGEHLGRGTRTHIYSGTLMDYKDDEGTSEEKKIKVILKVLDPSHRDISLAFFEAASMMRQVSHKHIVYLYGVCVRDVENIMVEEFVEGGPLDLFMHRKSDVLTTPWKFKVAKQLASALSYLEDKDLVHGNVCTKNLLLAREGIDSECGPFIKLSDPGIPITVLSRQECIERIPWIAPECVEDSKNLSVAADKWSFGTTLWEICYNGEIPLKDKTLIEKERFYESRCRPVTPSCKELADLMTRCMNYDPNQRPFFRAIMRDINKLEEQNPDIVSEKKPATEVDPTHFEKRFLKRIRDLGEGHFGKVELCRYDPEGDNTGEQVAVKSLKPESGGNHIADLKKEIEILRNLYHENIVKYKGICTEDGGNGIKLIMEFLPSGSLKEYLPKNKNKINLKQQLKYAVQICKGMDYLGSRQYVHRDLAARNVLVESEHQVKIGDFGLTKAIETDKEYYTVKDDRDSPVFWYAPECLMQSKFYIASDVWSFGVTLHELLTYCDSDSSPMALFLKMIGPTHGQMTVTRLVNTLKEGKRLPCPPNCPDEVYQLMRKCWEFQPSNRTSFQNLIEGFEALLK

binding result (JAK-1)	binding result [1]	Binder
no binding		chimeric α/γ/γ receptor chain (receptor, UniProt P01589 22-240, looked up) ELCDDDPPEIPHATFKAMAYKEGTMLNCECKRGFRRIKSGSLYMLCTGNSSHSSWDNQCQCTSSATRNTTKQVTPQPEEQKERKTTEMQSPMQPVDQASLPGHCREPPPWENEATERIYHFVVGQMVYYQCVQGYRALHRGPAESVCKMTHGKTRWTQPQLICTGEMETSQFPGEEKPQASPEGRPESETSCLVTTTDFQIQTEMAATMETSIFTTEYQVVISVGSMGLIISLLCVYFWLERTMPRIPTLKNLEDLVTEYHGNFSAWSGVSKGLAESLQPDYSERLCLVSEIPPKGGALGEGPGASPCNQHSPYWAPPCYTLKPET
	binds	JAK-3 protein (enzyme, Intracellular kinase of 1124 residues; Tested as the endogenous protein in lysates of HUT-78, YT, NK and NK3.3 cells, or as recombinant protein in lysates of transfected COS-7 cells; also called L-JAK; human JAK-3) MAPPSEETPLIPQRSCSLLSTEAGALHVLLPARAPGPPQRLSFSFGDHLAEDLCVQAAKASGILPVYHSLFALATEDLSCWFPPSHIFSVEDASTQVLLYRIRFYFPNWFGLEKCHRFGLRKDLASAILDLPVLEHLFAQHRSDLVSGRLPVGLSLKEQGECLSLAVLDLARMAREQAQRPGELLKTVSYKACLPPSLRDLIQGLSFVTRRAIRRTVRRALPRVAACQADRHSLMAKYIMDLERLDPAGAAETFHVGLPGALGGHDGLGLLRVAGDGGIAWTQGEQEVLQPFCDFPEIVDISIKQAPRVGPAGEHRLVTVTRTDNQILEAEFPGLPEALSFVALVDGYFRLTTDSQHFFCKEVAPPRLLEEVAEQCHGPITLDFAINKLKTGGSRPGSYVLRRSPQDFDSFLLTVCVQNPLGPDYKGCLIRRSPTGTFLLVGLSRPHSSLRELLATCWDGGLHVDGVAVTLTSCCIPRPKEKSNLIVVQRGHSPPTSSLVQPQSQYQLSQMTFHKIPADSLEWHENLGHGSFTKIYRGCRHEVVDGEARKTEVLLKVMDAKHKNCMESFLEAASLMSQVSYRHLVLLHGVCMAGDSTMVQEFVHLGAIDMYLRKRGHLVPASWKLQVVKQLAYALNYLEDKGLPHGNVSARKVLLAREGADGSPPFIKLSDPGVSPAVLSLEMLTDRIPWVAPECLREAQTLSLEADKWGFGATVWEVFSGVTMPISALDPAKKLQFYEDRQQLPAPKWTELALLIQQCMAYEPVQRPSFRAVIRDLNSLISSDYELLSDPTPGALAPRDGLWNGAQLYACQDPTIFEERHLKYISQLGKGNFGSVELCRYDPLAHNTGALVAVKQLQHSGPDQQRDFQREIQILKALHSDFIVKYRGVSYGPGRPELRLVMEYLPSGCLRDFLQRHRARLDASRLLLYSSQICKGMEYLGSRRCVHRDLAARNILVESEAHVKIADFGLAKLLPLDKDYYVVREPGQSPIFWYAPESLSDNIFSRQSDVWSFGVVLYELFTYCDKSCSPSAEFLRMMGCERDVPALCRLLELLEEGQRLPAPPACPAEVHELMKLCWAPSPQDRPSFSALGPQLDMLWSGSRGCETHAFTAHPEGKHHSLSFS
